The nature of this series: self-splicing fitness, log relative to wild type (ln ratio); higher = more splicing; Tetrahymena group I intron in knt gene, E. coli kanamycin selection, DiMSum; sequences stand for … in CUCUCU…GGAGGGAAAAGUUAUCAGGCAUGCACCUGGUAGCUAGUCUUUAAACCAAUAGAUUGCAUCGGUUUAAAAGGCAAGACCGUCAAAUUGCGGGAAAGGGGUCAACAGCCGUUCAGUACCAAGUCUCAGGGGAAACUUUGAGAUGGCCUUGCAAAGGGUAUGGUAAUAAGCUGACGGACAUGGUCCUAACCACGCAGCCAAGUCCUAAGUCAACAGAUCUUCUGUUGAUAUGGAUGCAGUUCACAGACUAAAUGUCGGUCGGGGAAGAUGUAUUCUUCUCAUAAGAUAUAGUCGGACCUCUCCUUAAUGGGAGCUAGCGGAUGAAGUGAUGCAACACUGGAGCCGCUGGGAACUAAUUUGUAUGCGAAAGUAUAUUGAUUAGUUUUGGAGUACUCGUGGUCG
In a few lines: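 Six replicate transformations of E. coli BL21(DE3) with a pET-22b(+) library were grown overnight at 37°C or 30°C. The library randomised all eight P1ex-region intron nucleotides, the intron lying in the knt kanamycin-resistance gene, and plates were LB agar with or without 25 μg/mL kanamycin plus 100 μg/mL carbenicillin, 50 μM IPTG and 0.2% rhamnose. Pooled colonies were amplicon-sequenced on an Illumina HiSeq 2500, and fitness is the DiMSum error-weighted combination of wild-type-normalised replicate fold changes, kanamycin versus none.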

± gives the uncertainty stated by the source.

Take CUGUAGCAAUAUUACGAAGC: the “self-splicing fitness (ln)” value is -4.57 ± 0.42 (30 °C) and -2.67 ± 0.38 (37 °C).

Consider CUGUAGCAAUAUUACGACGA, for which the “self-splicing fitness (ln)” value (30 °C) was -1.4 ± 0.19 and the “self-splicing fitness (ln)” value (37 °C) is -0.118 ± 0.15.

Regarding CUGUAGCAAUAUUACGAGAA, the “self-splicing fitness (ln)” value (37 °C) was -2.78 ± 0.38.

As for CUGUAGCAAUAUUACGAGAC, the “self-splicing fitness (ln)” value (30 °C) is -2.77 ± 0.2 and the “self-splicing fitness (ln)” value (37 °C) is -0.769 ± 0.14.

Turning to CUGUAGCAAUAUUACGCGAC, the “self-splicing fitness (ln)” value runs as follows: (30 °C) -2.56 ± 0.2; (37 °C) -2.41 ± 0.28.

On to CUGUAGCAAUAUUACGCUGC, for which, under “30 °C”, the “self-splicing fitness (ln)” value was -3.17 ± 0.3.

Regarding CUGUAGCAAUAUUACGGAAU, the “self-splicing fitness (ln)” value was -2.18 ± 0.13 (30 °C) and -3.57 ± 0.32 (37 °C).

As to CUGUAGCAAUAUUACGGACG, the “self-splicing fitness (ln)” value was -1.53 ± 0.12 (30 °C) and -0.319 ± 0.15 (37 °C).

As to CUGUAGCAAUAUUACGGGAU, the “self-splicing fitness (ln)” value (30 °C) was -3.16 ± 0.26 and the “self-splicing fitness (ln)” value (37 °C) is -2.28 ± 0.23.

Take CUGUAGCAAUAUUACGGGUA: for the setting “30 °C”, the “self-splicing fitness (ln)” value is -1.96 ± 0.35.

On to CUGUAGCAAUAUUACGGUAU, for which the “self-splicing fitness (ln)” value is, setting by setting: (30 °C) -2.41 ± 0.15; (37 °C) -2.08 ± 0.18.

As for CUGUAGCAAUAUUACGGUCC, the “self-splicing fitness (ln)” value was -2.27 ± 0.25 (30 °C) and -2.71 ± 0.44 (37 °C).

CUGUAGCAAUAUUACGGUGA: the “self-splicing fitness (ln)” value is -3.22 ± 0.22 (30 °C) and -2.28 ± 0.24 (37 °C).

Regarding CUGUAGCAAUAUUACGUAGG, the “self-splicing fitness (ln)” value runs as follows: (30 °C) -1.03 ± 0.075; (37 °C) -0.77 ± 0.12.

Take CUGUAGCAAUAUUACGUCUA: the “self-splicing fitness (ln)” value (37 °C) was -1.78 ± 0.39.

For CUGUAGCAAUAUUACGUGAG, the “self-splicing fitness (ln)” value was -1.31 ± 0.072 (30 °C) and -0.935 ± 0.096 (37 °C).

CUGUAGCAAUAUUACGUGGA: the “self-splicing fitness (ln)” value is, setting by setting: (30 °C) -3.85 ± 0.28; (37 °C) -4.32 ± 0.42.

As for CUGUAGCAAUAUUACGUGGC, the “self-splicing fitness (ln)” value (37 °C) is 0.0373 ± 0.2.

For CUUAAGCAAUAUUACGAAAG, the “self-splicing fitness (ln)” value reads like this: (30 °C) -2.9 ± 0.22; (37 °C) -1.75 ± 0.18.

Take CUUAAGCAAUAUUACGAACC: the “self-splicing fitness (ln)” value (37 °C) was -0.593 ± 0.37.

In the case of CUUAAGCAAUAUUACGAGAC, the “self-splicing fitness (ln)” value (37 °C) was -3.26 ± 0.43.

Turning to CUUAAGCAAUAUUACGCAGC, the “self-splicing fitness (ln)” value is -3.43 ± 0.25 (30 °C) and -1.93 ± 0.37 (37 °C).

Turning to CUUAAGCAAUAUUACGCAUC, where the note is “37 °C”, the “self-splicing fitness (ln)” value was -0.617 ± 0.29.

In the case of CUUAAGCAAUAUUACGCCCA, the “self-splicing fitness (ln)” value reads like this: (30 °C) -2.46 ± 0.32; (37 °C) -1.69 ± 0.48.

On to CUUAAGCAAUAUUACGCCUC, for which the “self-splicing fitness (ln)” value (30 °C) was -1.85 ± 0.22.

As for CUUAAGCAAUAUUACGCGAC, the “self-splicing fitness (ln)” value is -1.83 ± 0.16 (30 °C) and -0.508 ± 0.23 (37 °C).

As to CUUAAGCAAUAUUACGCGCG, the “self-splicing fitness (ln)” value reads like this: (30 °C) -1.54 ± 0.12; (37 °C) -0.513 ± 0.17.

Take CUUAAGCAAUAUUACGCGUA: the “self-splicing fitness (ln)” value (30 °C) is -2.75 ± 0.34 and the “self-splicing fitness (ln)” value (37 °C) is -3.23 ± 0.29.

Take CUUAAGCAAUAUUACGCGUU: the “self-splicing fitness (ln)” value was -4.44 ± 0.23 (30 °C) and -3.85 ± 0.25 (37 °C).

For CUUAAGCAAUAUUACGGAGU, the “self-splicing fitness (ln)” value was -2.92 ± 0.099 (30 °C) and -2.31 ± 0.12 (37 °C).

For the sequence CUUAAGCAAUAUUACGGGUA, the “self-splicing fitness (ln)” value (30 °C) is -2.7 ± 0.22 and the “self-splicing fitness (ln)” value (37 °C) was -2.75 ± 0.38.

In the case of CUUAAGCAAUAUUACGGUUG, the “self-splicing fitness (ln)” value is -1.95 ± 0.14 (30 °C) and -1.3 ± 0.14 (37 °C).

In the case of CUUAAGCAAUAUUACGUAAA, the “self-splicing fitness (ln)” value (30 °C) was -3.93 ± 0.27 and the “self-splicing fitness (ln)” value (37 °C) is -2.88 ± 0.36.

In the case of CUUAAGCAAUAUUACGUACU, the “self-splicing fitness (ln)” value is, setting by setting: (30 °C) -2.82 ± 0.16; (37 °C) -2.67 ± 0.23.

Consider CUUAAGCAAUAUUACGUAUC, for which, where the note is “37 °C”, the “self-splicing fitness (ln)” value was -2.98 ± 0.33.

For the sequence CUUAAGCAAUAUUACGUCAG, the “self-splicing fitness (ln)” value reads like this: (30 °C) -0.948 ± 0.084; (37 °C) -0.564 ± 0.1.

CUUAAGCAAUAUUACGUCCU: the “self-splicing fitness (ln)” value by setting is: (30 °C) -3.41 ± 0.21; (37 °C) -2.43 ± 0.19.

Regarding CUUAAGCAAUAUUACGUCGC, where the note is “37 °C”, the “self-splicing fitness (ln)” value was -1.65 ± 0.33.

Take CUUAAGCAAUAUUACGUCUC: the “self-splicing fitness (ln)” value runs as follows: (30 °C) -3.75 ± 0.33; (37 °C) -2.11 ± 0.27.

On to CUUAAGCAAUAUUACGUCUU, for which the “self-splicing fitness (ln)” value runs as follows: (30 °C) -3.64 ± 0.24; (37 °C) -3.11 ± 0.25.

Consider CUUAAGCAAUAUUACGUUAU, for which the “self-splicing fitness (ln)” value reads like this: (30 °C) -3.09 ± 0.14; (37 °C) -2.51 ± 0.2.

Consider CUUAAGCAAUAUUACGUUGU, for which the “self-splicing fitness (ln)” value (30 °C) is -3.89 ± 0.2 and the “self-splicing fitness (ln)” value (37 °C) is -1.64 ± 0.15.

Source of the values: the supplement of paper PMC7877785.
